Laboratory results published in the supplement of paper PMC10567573.

B1: USP39 (parent)
chain: FQGSMRIFTKKLPHPDLPAEEKEQ
B2: RAD54B (parent)
chain: YVQEKRDGLKRRQQLEEELLRAKI

Variants of: B1
Assay: protein stability index of a GFP-peptide fusion (GPS, HEK-293T) (PSI 1-6); higher = more stable
Conditions: c terminus: a fixed tail appended
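Note: lentivirally expressed fusions sorted by FACS into six bins by GFP to DsRed ratio, PSI derived from sequencing read proportions per bin multiplied by bin number.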

| Variant | protein stability index |
| --- | --- |
| E21R | 1.96 |
| E21W | 1.32 |
| P18Q | 2.15 |
| P18T | 1.88 |
| P18N | 1.98 |
| M5Q | 2.29 |
| M5E | 2.5 |
| H14V | 1.88 |
| H14W | 1.99 |
| R6D | 1.84 |
| R6M | 2.15 |
| D16L | 2.3 |
| D16G | 1.97 |
| D16Y | 2.18 |
| Q2C | 3.34 |
| Q2L | 2.73 |
| L12C | 2.15 |
| K22V | 2.48 |
| L17M | 1.95 |
| F8L | 3.28 |

| Variant | protein stability index |
| --- | --- |
| F8G | 3.48 |
| E23W | 2.19 |
| E23K | 1.84 |
| E20H | 1.59 |
| E20D | 1.87 |
| I7D | 3.85 |
| F1A | 5.07 |
| F1G | 4.66 |
| F1W | 4.78 |
| A19H | 2.25 |
| G3C | 1.86 |
| T9Q | 2.19 |
| P15E | 2.19 |
| P15N | 2.41 |
| Q24E | 1.81 |
| Q24L | 1.91 |
| K10Q | 1.84 |
| K10C | 3.86 |
| K10I | 1.74 |
| K10Y | 1.94 |

Variants of: B2
Assay: as above
Conditions: c terminus: a fixed tail appended

| Variant | protein stability index |
| --- | --- |
| E16N | 2.07 |
| E16H | 1.74 |
| E16I | 1.51 |
| E16L | 2.17 |
| E16M | 1.74 |
| E16Q | 1.8 |
| E16V | 2.24 |
| E16D | 1.77 |
| E16Y | 1.73 |
| E16C | 2.09 |
| E16A | 1.98 |
| E16T | 1.83 |
| L15P | 1.51 |
| L15W | 1.49 |
| L15D | 2.09 |
| L15Q | 1.7 |
| L15A | 1.93 |
| L15R | 1.99 |
| L15K | 2.05 |
| L15I | 2.32 |
| L15Y | 2.44 |
| L15V | 1.48 |
| L15E | 2.61 |
| L15S | 1.95 |
| L15C | 1.87 |

| Variant | protein stability index |
| --- | --- |
| E17C | 2.21 |
| E17F | 1.87 |
| E17G | 2.35 |
| E17Q | 1.51 |
| E17R | 2.44 |
| E17T | 2.08 |
| E17A | 1.6 |
| E17I | 2.45 |
| E17P | 1.98 |
| E17M | 2.21 |
| E17W | 1.9 |
| E17K | 1.9 |
| E17V | 2.25 |
| R21V | 1.94 |
| R21A | 1.66 |
| R21M | 1.96 |
| R21E | 2.17 |
| R21D | 2.1 |
| R21F | 1.93 |
| R21Y | 1.75 |
| R21G | 2.09 |
| R21H | 1.57 |
| R21T | 2.26 |
| R21L | 1.84 |
| G8W | 3.6 |

| Variant | protein stability index |
| --- | --- |
| G8I | 1.99 |
| G8H | 1.92 |
| G8L | 2.45 |
| G8P | 2.12 |
| G8N | 1.49 |
| G8F | 2.27 |
| G8K | 2.33 |
| G8Y | 2.12 |
| G8A | 1.82 |
| G8D | 2.27 |
| G8E | 2.59 |
| I24Y | 1.74 |
| I24L | 1.65 |
| I24P | 2.45 |
| I24F | 1.98 |
| I24S | 1.93 |
| I24R | 1.68 |
| I24G | 2.08 |
| I24N | 2.18 |
| I24Q | 2.22 |
| I24H | 2.38 |
| I24A | 1.98 |
| K10M | 2.46 |
| K10T | 2.5 |
| K10L | 2.28 |

| Variant | protein stability index |
| --- | --- |
| K10V | 2.9 |
| K10W | 1.47 |
| K10R | 1.98 |
| K10G | 2.28 |
| K10P | 2.55 |
| K10Y | 1.77 |
| K10H | 2.4 |
| K10C | 1.83 |
| K10S | 2.49 |
| K10Q | 2.5 |
| K10A | 2.04 |
| Q13L | 2.32 |
| Q13Y | 1.9 |
| Q13A | 2.23 |
| Q13T | 2.32 |
| Q13G | 2.31 |
| Q13W | 1.98 |
| Q13H | 2.06 |
| Q13M | 2.07 |
| Q13C | 1.84 |
| Q13E | 2.41 |
| R11Q | 2.32 |
| R11C | 1.81 |
| R11W | 2.46 |
| R11V | 2.13 |

| Variant | protein stability index |
| --- | --- |
| R11Y | 1.97 |
| R11I | 2.86 |
| R11T | 2.46 |
| R11E | 3.22 |
| R11A | 2.82 |
| R11H | 2.93 |
| R11N | 2.67 |
| R11D | 2.62 |
| R11F | 1.69 |
| R12Y | 2.01 |
| R12P | 1.96 |
| R12L | 1.98 |
| R12V | 2.04 |
| R12N | 2.41 |
| R12W | 1.89 |
| R12Q | 2.35 |
| R12G | 2.25 |
| R12I | 1.99 |
| R12D | 3.23 |
| K23E | 1.71 |
| K23W | 1.59 |
| K23H | 2.95 |
| K23D | 2.55 |
| K23Y | 1.49 |
| K23C | 1.79 |

| Variant | protein stability index |
| --- | --- |
| K23M | 2.62 |
| K23N | 2.28 |
| K23G | 1.86 |
| K23V | 2.25 |
| K23S | 2.36 |
| K23F | 1.81 |
| K23R | 2.45 |
| Q3F | 1.95 |
| Q3T | 2.94 |
| Q3K | 1.81 |
| Q3R | 1.83 |
| Q3Y | 1.8 |
| Q3M | 1.64 |
| Q3H | 1.91 |
| Q3N | 2.05 |
| Q3I | 1.77 |
| L20P | 1.78 |
| L20G | 2.08 |
| L20A | 1.95 |
| L20N | 1.94 |
| L20C | 1.59 |
| L20T | 1.82 |
| L20Q | 1.75 |
| L20S | 1.67 |
| L20V | 1.49 |

| Variant | protein stability index |
| --- | --- |
| L20Y | 2.26 |
| L20E | 2.25 |
| L20K | 2.19 |
| L20W | 2.08 |
| L19D | 2.3 |
| L19E | 1.95 |
| L19H | 2.16 |
| L19N | 2.14 |
| L19P | 2.34 |
| L19T | 1.75 |
| L19A | 1.96 |
| L19W | 2.17 |
| L19C | 1.95 |
| L19S | 2.45 |
| L19Q | 1.78 |
| L19K | 2.42 |
| L19Y | 1.55 |
| L19M | 2.06 |
| L19G | 2.54 |
| Y1P | 3.89 |
| Y1H | 3.91 |
| Y1C | 3.52 |
| Y1G | 4.19 |
| Y1T | 3.59 |
| Y1V | 2.81 |

| Variant | protein stability index |
| --- | --- |
| Y1M | 3.95 |
| Y1F | 1.79 |
| Y1N | 3.74 |
| Y1K | 3.74 |
| Y1L | 3.56 |
| Q14K | 2.35 |
| Q14V | 2.01 |
| Q14R | 2.09 |
| Q14A | 1.93 |
| Q14S | 1.67 |
| Q14M | 1.75 |
| Q14I | 1.76 |
| Q14E | 2 |
| Q14F | 2.12 |
| Q14G | 2.33 |
| Q14W | 2.12 |
| Q14N | 1.65 |
| Q14L | 1.86 |
| Q14H | 1.94 |
| R6F | 2.14 |
| R6V | 2.23 |
| R6C | 2.32 |
| R6D | 2.87 |
| R6M | 2.12 |
| R6I | 2.66 |

| Variant | protein stability index |
| --- | --- |
| R6K | 1.96 |
| R6L | 2.46 |
| R6E | 3.26 |
| R6H | 2.1 |
| R6P | 1.94 |
| R6W | 2.07 |
| R6T | 2.49 |
| R6Y | 2.18 |
| R6Q | 2.39 |
| E4P | 2.23 |
| E4V | 1.6 |
| E4M | 1.84 |
| E4W | 1.62 |
| E4F | 1.89 |
| E4Y | 2.28 |
| E4C | 2.57 |
| E4L | 1.67 |
| E4D | 1.68 |
| E4T | 1.49 |
| E4K | 2.28 |
| E4N | 1.89 |
| E4I | 1.35 |
| A22C | 1.83 |
| A22I | 2.32 |
| A22K | 1.82 |

| Variant | protein stability index |
| --- | --- |
| A22V | 2.45 |
| A22N | 2.01 |
| A22G | 1.89 |
| A22R | 1.83 |
| A22Y | 1.81 |
| A22M | 2.27 |
| A22E | 2.92 |
| A22D | 2.29 |
| K5T | 1.74 |
| K5M | 2.25 |
| K5E | 3.57 |
| K5W | 2.11 |
| K5V | 2.1 |
| K5N | 2.19 |
| K5R | 1.86 |
| K5L | 1.96 |
| K5I | 2.77 |
| K5S | 2.56 |
| D7C | 3.13 |
| D7E | 1.96 |
| D7K | 2.16 |
| D7L | 1.46 |
| D7T | 3.69 |
| D7H | 1.67 |
| D7Q | 2.21 |

| Variant | protein stability index |
| --- | --- |
| D7G | 1.88 |
| D7F | 1.54 |
| D7M | 1.79 |
| D7A | 1.87 |
| D7I | 2.13 |
| D7N | 1.81 |
| D7P | 1.88 |
| L9N | 2.35 |
| L9G | 2.14 |
| L9Q | 2.26 |
| L9Y | 1.91 |
| L9H | 2.1 |
| L9D | 2.92 |
| L9C | 2.06 |
| L9I | 2.25 |
| L9T | 1.83 |
| L9R | 1.79 |
| L9A | 2.21 |
| L9V | 1.82 |
| V2M | 3.65 |
| V2Q | 3.31 |
| V2L | 3.41 |
| V2C | 3.08 |
| V2T | 3.75 |
| V2H | 2.55 |

| Variant | protein stability index |
| --- | --- |
| V2S | 4.01 |
| V2W | 3.35 |
| V2N | 3.73 |
| V2F | 3.62 |
| V2Y | 3.56 |
| V2I | 2.84 |
| V2K | 3.82 |
| E18F | 2.06 |
| E18R | 1.88 |
| E18N | 1.96 |
| E18Q | 2.03 |
| E18D | 1.86 |
| E18T | 1.48 |
| E18Y | 2.22 |
| E18M | 2.01 |
| E18W | 2.42 |
| E18S | 2.13 |
| E18A | 2.02 |
| E18C | 1.73 |
